Laboratory results from US20090029376.
Residue numbers refer to the chain shown, from its start.

What was measured:
Assay in all cases: cleavage_in_vitro
[1] = target: T1, PvuII-HF T46G (Proteus vulgaris) (UniProt P23657); details: NEB4, 37 C
T1 sequence: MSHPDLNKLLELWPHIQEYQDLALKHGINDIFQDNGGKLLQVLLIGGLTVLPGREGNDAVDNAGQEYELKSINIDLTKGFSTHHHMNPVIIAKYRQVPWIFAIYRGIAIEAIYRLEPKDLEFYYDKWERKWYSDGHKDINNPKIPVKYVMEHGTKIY

[2] = target: T2, SalI-HF R107A (Streptomyces albus G) (UniProt Q53608); details: NEB4, 37 C
T2 sequence: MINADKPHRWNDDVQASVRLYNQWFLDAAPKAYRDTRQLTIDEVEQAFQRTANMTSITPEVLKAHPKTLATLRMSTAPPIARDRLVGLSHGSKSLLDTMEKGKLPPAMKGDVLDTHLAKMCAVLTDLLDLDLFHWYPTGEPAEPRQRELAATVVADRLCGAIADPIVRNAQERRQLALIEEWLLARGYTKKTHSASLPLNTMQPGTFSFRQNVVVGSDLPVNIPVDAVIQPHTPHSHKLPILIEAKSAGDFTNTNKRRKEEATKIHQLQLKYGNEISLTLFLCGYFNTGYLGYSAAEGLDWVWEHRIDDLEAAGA

[3] = target: T3, SalI (Streptomyces albus G) (UniProt Q53608); details: NEB3, 37 C; Table 10 prints 4
T3 sequence: T2 sequence with A107R

[4] = tested on: T4, AvrII-HF Y104F (Anabaena variabilis); details: NEB4, 37 C
T4 sequence: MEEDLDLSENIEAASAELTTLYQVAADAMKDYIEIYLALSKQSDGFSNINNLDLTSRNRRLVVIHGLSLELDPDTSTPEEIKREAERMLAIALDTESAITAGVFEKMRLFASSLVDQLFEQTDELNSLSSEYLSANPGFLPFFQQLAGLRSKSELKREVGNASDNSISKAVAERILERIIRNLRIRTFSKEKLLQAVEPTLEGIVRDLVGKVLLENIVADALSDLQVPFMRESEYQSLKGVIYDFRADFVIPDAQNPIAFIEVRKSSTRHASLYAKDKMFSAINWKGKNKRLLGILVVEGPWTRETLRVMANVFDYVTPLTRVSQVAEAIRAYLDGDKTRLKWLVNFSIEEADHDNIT

[5] = tested on: T5, AvrII (Anabaena variabilis); details: NEB4, 37 C
T5 sequence: T4 sequence with F104Y

[6] = target: T6, BamHI(K30A/K88A) K30A/K88A (Bacillus amyloliquefaciens) (UniProt P23940); details: NEB2, 37 C
T6 sequence: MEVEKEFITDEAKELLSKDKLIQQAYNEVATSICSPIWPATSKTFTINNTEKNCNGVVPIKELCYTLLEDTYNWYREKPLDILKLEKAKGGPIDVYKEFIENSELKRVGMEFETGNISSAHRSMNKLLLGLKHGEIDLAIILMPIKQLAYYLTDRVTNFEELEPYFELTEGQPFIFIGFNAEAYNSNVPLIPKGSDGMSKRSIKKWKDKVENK

[7] = target: T7, BamHI(K30A/K52A) K30A/K52A (Bacillus amyloliquefaciens) (UniProt P23940); details: NEB2, 37 C
T7 sequence: T6 sequence with K52A, A88K

[8] = tested on: T8, BspQI-HF K279P/R388F (Bacillus sphaericus); details: NEB4, 50 C
T8 sequence: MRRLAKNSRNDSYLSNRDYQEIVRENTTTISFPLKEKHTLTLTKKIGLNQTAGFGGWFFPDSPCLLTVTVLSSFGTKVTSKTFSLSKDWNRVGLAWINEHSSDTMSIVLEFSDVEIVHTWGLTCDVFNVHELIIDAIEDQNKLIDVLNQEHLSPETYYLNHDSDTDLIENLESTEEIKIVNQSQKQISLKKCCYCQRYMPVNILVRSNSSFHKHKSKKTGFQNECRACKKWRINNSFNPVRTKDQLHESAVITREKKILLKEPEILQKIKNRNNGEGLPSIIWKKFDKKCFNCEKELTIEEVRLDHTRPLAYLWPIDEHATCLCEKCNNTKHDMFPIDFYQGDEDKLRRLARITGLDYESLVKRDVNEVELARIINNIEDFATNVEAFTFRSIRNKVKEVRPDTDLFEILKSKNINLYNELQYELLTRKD

In the case of pBR322, the activity (fidelity index) [1] is reported as 500.

Work on HindIII-digested lambda DNA yielded an activity (fidelity index) [2] of over 2000 and an activity (fidelity index) [3] of 32.

In the case of T7 DNA, the activity (fidelity index) [4] is reported as 1000 and the activity (fidelity index) [5] is reported as 32.

In the case of pUC19, the relative cleavage activity (fraction of K30A activity) [6] is reported as 0.1, the relative cleavage activity (fraction of K30A activity) [7] is reported as 0.1 and the activity (fidelity index) [8] is reported as over 4000.
